Values quoted from earlier work, collected in publication PMC10770464.
pKd: −log10 of the molar value.

Key:
[1] = biological target: Plasminogen kringle 4 (Homo sapiens) (UniProt P00747)
[2] = biological target: Apolipoprotein A (Homo sapiens) (UniProt P08519)
[3] = biological target: High mobility group box-1 (Homo sapiens) (UniProt P09429)
[4] = biological target: Plasminogen (Homo sapiens) (UniProt P00747)
[5] = biological target: Tissue plasminogen activator (Homo sapiens) (UniProt P00750); assay: ELISA
[6] = biological target: Hepatocyte growth factor (Homo sapiens) (UniProt P14210); assay: ELISA
Sequence of UniProt P14210 (P14210 495-728): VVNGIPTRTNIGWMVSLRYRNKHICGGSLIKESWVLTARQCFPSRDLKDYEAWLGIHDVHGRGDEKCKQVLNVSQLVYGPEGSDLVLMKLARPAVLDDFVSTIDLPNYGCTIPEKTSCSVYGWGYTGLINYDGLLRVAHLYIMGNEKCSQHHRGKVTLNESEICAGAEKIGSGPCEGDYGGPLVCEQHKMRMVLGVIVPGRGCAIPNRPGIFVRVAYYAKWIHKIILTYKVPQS

Sequence of UniProt P08519 (P08519 20-2040): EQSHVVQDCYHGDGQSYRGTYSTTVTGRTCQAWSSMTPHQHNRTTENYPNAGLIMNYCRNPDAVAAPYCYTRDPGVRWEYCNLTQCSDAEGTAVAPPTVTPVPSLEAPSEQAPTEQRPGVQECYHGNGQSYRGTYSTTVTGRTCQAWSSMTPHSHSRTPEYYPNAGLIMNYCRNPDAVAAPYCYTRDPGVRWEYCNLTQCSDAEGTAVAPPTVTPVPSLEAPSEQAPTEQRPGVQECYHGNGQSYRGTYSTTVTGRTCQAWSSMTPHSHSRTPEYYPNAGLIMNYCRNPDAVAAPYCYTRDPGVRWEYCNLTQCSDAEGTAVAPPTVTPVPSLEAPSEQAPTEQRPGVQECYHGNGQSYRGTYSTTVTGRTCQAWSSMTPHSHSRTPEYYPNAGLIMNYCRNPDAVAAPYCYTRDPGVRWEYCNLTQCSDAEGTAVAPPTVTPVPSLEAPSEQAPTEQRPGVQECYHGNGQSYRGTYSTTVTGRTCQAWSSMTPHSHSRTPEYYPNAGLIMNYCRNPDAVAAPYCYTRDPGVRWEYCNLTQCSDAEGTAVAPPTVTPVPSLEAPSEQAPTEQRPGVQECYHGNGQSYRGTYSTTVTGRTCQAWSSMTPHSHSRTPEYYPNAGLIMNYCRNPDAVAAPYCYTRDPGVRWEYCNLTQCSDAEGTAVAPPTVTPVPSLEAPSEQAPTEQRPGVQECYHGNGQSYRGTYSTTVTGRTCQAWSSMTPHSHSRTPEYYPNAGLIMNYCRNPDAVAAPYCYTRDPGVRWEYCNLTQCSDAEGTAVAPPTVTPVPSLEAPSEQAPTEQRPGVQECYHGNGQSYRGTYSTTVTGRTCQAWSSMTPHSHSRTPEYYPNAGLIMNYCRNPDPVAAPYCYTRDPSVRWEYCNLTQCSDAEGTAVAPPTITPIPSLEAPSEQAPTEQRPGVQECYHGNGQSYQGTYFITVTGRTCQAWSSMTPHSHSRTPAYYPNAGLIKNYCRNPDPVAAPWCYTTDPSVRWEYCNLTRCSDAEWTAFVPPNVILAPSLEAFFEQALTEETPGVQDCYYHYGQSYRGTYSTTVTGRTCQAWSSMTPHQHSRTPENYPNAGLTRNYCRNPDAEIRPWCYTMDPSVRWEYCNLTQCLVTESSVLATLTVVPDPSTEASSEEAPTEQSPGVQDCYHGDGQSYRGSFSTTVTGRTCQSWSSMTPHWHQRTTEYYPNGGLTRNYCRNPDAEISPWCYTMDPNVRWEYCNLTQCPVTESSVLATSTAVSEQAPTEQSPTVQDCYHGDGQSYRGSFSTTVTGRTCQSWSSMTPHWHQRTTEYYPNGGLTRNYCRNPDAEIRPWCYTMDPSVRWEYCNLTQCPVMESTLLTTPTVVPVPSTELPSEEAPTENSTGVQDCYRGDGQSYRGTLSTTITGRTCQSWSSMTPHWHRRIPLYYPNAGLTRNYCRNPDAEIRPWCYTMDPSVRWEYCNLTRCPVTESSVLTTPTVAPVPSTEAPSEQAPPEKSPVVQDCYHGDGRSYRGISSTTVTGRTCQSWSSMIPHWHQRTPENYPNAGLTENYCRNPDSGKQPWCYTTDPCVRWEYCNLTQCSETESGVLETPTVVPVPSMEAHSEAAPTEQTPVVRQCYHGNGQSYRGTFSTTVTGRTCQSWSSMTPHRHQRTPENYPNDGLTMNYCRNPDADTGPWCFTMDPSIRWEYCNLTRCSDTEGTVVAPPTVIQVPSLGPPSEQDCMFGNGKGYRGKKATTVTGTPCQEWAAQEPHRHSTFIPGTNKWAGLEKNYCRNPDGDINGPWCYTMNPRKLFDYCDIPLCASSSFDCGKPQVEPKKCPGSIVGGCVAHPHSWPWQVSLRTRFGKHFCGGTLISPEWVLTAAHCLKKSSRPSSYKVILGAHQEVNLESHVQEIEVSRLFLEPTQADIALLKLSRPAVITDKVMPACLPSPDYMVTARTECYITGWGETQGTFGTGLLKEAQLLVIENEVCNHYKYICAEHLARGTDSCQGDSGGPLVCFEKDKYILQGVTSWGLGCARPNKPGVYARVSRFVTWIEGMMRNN
Sequence of UniProt P00750 (P00750 36-562): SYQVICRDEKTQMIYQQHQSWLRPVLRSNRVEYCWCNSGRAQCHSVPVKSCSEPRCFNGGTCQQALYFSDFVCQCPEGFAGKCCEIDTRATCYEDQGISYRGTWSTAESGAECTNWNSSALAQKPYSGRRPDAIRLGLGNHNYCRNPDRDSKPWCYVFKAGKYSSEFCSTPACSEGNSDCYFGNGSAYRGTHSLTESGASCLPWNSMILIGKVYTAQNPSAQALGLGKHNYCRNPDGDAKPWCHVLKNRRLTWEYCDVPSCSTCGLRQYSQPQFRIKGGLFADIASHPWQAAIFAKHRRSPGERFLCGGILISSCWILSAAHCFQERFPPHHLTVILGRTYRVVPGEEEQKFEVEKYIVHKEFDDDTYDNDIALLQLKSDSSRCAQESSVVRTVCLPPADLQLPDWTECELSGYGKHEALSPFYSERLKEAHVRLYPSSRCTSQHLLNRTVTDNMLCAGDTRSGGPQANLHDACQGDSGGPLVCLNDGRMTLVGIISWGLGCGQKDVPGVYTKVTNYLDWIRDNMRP
Sequence of UniProt P09429 (P09429 whole entry): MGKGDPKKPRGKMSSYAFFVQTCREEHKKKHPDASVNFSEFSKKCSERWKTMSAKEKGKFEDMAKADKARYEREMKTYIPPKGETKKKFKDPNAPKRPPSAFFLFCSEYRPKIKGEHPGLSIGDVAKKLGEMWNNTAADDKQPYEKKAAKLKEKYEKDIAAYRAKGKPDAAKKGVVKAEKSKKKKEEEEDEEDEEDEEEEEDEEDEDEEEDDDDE

pKd [1]: 4.60 | pKd [2]: 7.89 | pKd [3]: 8.69 | pKd [4]: 6.40 | pKd [5]: 6.54 | pKd [6]: 6.31
Substance: Tetranectin (from UniProt P05452)
